What was measured:
human Clq [1] = target: T1, human Clq (human, UniProt P02745 23-245; P02746 28-253; P02747 29-245); experiment: ELISA, MAb coated on plate, human Clq in solution, detected with anti-human Clq peroxidase conjugate
T1 construct: also called Clq complement; C1q
Procedure: (§1) The Binding of Human Clq to MAbs was assessed by an ELISA binding assay. The 96-well plates (Nunc) were coated overnight at 4° C. with varying MAb concentrations. After washing, the plates were blocked with PBS-5% BSA for 1 h, and incubated for 1 h with 0.2 μg/ml of recombinant human Clq (Abd Serotec) or 2.5 μl of natural human complement (Sigma). Then, 100 μl of a 1/500 dilution of sheep anti-human Clq peroxidase-conjugated Ab (Abd Serotec) added and incubated for 1 h. The plates were developed with 100 μl per well of TMB substrate (Uptima Interchim). After H₂SO₄ addition, the OD was measured at 450 nm/630 nmusing a MRX II microplate reader.

human Clq [2] = target: T1, human Clq; experiment: ELISA, MAb coated on plate, human Clq in solution, detected with anti-human Clq peroxidase conjugate; chR007 Fc0 is the weaker reference
Procedure: as §1

T1 sequence (P02745 23-245 limits assumed, chain 1 of 3): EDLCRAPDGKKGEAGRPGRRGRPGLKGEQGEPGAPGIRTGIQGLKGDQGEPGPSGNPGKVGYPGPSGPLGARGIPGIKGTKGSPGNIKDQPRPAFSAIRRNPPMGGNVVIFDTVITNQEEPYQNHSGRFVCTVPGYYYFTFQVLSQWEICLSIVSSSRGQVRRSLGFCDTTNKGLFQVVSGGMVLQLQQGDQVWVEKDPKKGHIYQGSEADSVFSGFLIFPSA
T1 sequence (P02746 28-253 limits assumed, chain 2 of 3): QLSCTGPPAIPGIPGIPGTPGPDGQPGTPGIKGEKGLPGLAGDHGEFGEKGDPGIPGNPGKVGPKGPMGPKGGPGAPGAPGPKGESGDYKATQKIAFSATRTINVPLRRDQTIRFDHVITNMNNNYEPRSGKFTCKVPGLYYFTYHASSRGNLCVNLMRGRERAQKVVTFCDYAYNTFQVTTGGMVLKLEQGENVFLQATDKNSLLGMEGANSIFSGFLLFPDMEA
T1 sequence (P02747 29-245 limits assumed, chain 3 of 3): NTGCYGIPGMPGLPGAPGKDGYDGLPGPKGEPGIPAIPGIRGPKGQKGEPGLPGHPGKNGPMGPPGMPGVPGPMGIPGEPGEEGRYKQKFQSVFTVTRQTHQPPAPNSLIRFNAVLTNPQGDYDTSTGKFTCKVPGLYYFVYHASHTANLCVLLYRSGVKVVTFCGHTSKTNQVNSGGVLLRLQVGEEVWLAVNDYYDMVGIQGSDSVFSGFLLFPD

B1: chR007 Fc24 (antibody, human IgG1, kappa)
heavy: EVKLEESGGGLVQPGGSMKLSCVASGFTFSNYWMNWVRQSPEKGLEWVAEIRLKSNNYATHYAESVKGRFTISRDDSRSSVYLQMNNLRAEDTGIYYCTRDWEFAYWGQGTLVTVSSASTKGPSVFPLAPSSKSTSGGTAALGCLVKDYFPEPVTVSWNSGALTSGVHTFPAVLQSSGLYSLSSVVTVPSSSLGTQTYICNVNHKPSNTKVDKKVEPKSCDKTHTCPPCPAPELLGGPSVFLLPPKPKDTLMISRTPEVTCVVVDVSHEDPEVKFNWYVDGVEVHNAKTKPPEEQYNSTLRVVSLLTVLHQDWLNGKEYKCKVSNAALPAPIAKTISKAKGQPREPQVYTLPPSRDELTKNQVSLTCLVKGFYPSDIAVEWESNGQPENNYKTTPLVLDSDGSFFLYSKLTVDKSRWQQGNVFSCSVMHEALHNHYTQKSLSLSPGK
light: DIVLTQSPASLAVSLGQRATISCRTSESVDNYGSSSMNWFQQKPGQPPKLLIYRASNLDSGIPARFSGSGSRSDFTLTINPVEADDVATYYCQQSNEDLPYTFGGGTKLEIKRTVAAPSVFIFPPSDEQLKSGTASVVCLLNNFYPREAKVQWKVDNALQSGNSQESVTEQDSKDSTYSLSSTLTLSKADYEKHKVYACEVTHQGLSSPVTKSFNRGEC
notes: also called chimeric chR007 Fc24
binding result (human Clq [1]): binds

B2: chR007 Fc0 (antibody, human IgG1, kappa)
heavy: not shown
light: DIVLTQSPASLAVSLGQRATISCRTSESVDNYGSSSMNWFQQKPGQPPKLLIYRASNLDSGIPARFSGSGSRSDFTLTINPVEADDVATYYCQQSNEDLPYTFGGGTKLEIKRTVAAPSVFIFPPSDEQLKSGTASVVCLLNNFYPREAKVQWKVDNALQSGNSQESVTEQDSKDSTYSLSSTLTLSKADYEKHKVYACEVTHQGLSSPVTKSFNRGEC
notes: Chimeric anti-CD5 IgG1 with native human IgG1 Fc; also called native chimeric MAb chR007 Fc0
binding result (human Clq [2]): binds

B3: humanized 7Hz116 Fc24 (antibody, human IgG1, kappa, V domains shown)
VH: EVQLVESGGGLVQPGGSLKLSCAASGFTFSNYWMHWVRQASGKGLEWVAEIRSKANSYATAYAASVKGRFTISRDDSKNTAYLQMNSLKTEDTAVYYCTRDWEFAYWGQGTLVTVSS
VL: DIVMTQSPDSLAVSLGERATINCKSSQSVDNYGSSSLAWYQQKPGQPPKLLIYRASNLDSGVPDRFSGSGSGTDFTLTISSVQAEDVAVYYCQQSNEDLPYTFGQGTKLEIKR
binding result (human Clq [1]): binds

— patent publication US20230159654A1 (INTERNATIONAL DRUG DEVELOPMENT BIOTECH, published 2023)
